Assay results from article doi:10.1101/693663 (bioRxiv, 2019).
Positions count from the first letter of the chain named. Names and notes keep the numbering of the source. Blank lines part the entries; values can stand above or below the molecule they belong to.

How the values were obtained:
[1] = biological target: ASK2(1216–1288), C-terminal SAM domain of ASK2 (human) (UniProt O95382); test: AUC
[2] = biological target: ASK1(1290–1374), C-terminal SAM domain of ASK1 (human) (UniProt Q99683); test: SAXS
GST-ASK2 SAM domain = biological target: T1, GST-ASK2 SAM domain (human, UniProt O95382 1216-1288); test: pull-down
T1 sequence (looked up): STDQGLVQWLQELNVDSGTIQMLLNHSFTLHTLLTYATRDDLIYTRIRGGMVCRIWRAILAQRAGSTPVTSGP

SAXS = biological target: the molecule itself; test: SAXS
SEC = biological target: the molecule itself; test: SEC

B2: ASK3 SAM domain Q1304A (domain or fragment, human, UniProt Q6ZN16 1241-1313, looked up)
chain: DKELIDWLRLQGADAKTIEKIVEEGYTLSDILNEITKEDLRYLRLRGGLLCRLWSAVSQYRRAAEASETKDKA
binding result (SEC): binds

B3: ASK3 SAM domain V1262N (domain or fragment, human, UniProt Q6ZN16 1241-1313, looked up)
chain: B2 chain with V22N, A64Q
binding result (SEC): binds

B4: ASK3 SAM domain K1242E (domain or fragment, human, UniProt Q6ZN16 1241-1313, looked up)
chain: B2 chain with K2E, A64Q
binding result (SEC): binds

Second part, led by results:

stoichiometry N [1]: 2
Molecule: ASK2(1216–1288), C-terminal SAM domain of ASK2 (from UniProt O95382 1216-1288) (domain or fragment)

stoichiometry N [2]: 2
Molecule: ASK1(1290–1374), C-terminal SAM domain of ASK1 (from UniProt Q99683 1290-1374) (domain or fragment)

binding result (GST-ASK2 SAM domain): binds
B1: ASK3(1241–1313), C-terminal SAM domain of ASK3 (domain or fragment, human, UniProt Q6ZN16 1241-1313, looked up)
chain: B2 chain with A64Q
stoichiometry N (SAXS): 6
